Experiments:
[1] = biological target: T1, recombinant mouse VISTA (His-tagged) (mouse, UniProt Q9D659 33-191); experiment: BLI (Octet QK384): His-tagged murine VISTA on anti-Penta-HIS tips, V4 666.5 to 41.7 nM as analyte, global fit
T1 construct: also called murine VISTA; mVISTA
T1 sequence (looked up): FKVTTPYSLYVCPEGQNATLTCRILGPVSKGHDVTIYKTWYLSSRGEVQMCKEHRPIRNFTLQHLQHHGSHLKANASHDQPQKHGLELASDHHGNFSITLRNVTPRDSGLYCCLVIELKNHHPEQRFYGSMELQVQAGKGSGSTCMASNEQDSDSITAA

[2] = biological target: T2, recombinant human VISTA (His-tagged) (human, UniProt Q9H7M9 33-194); experiment: ELISA, target protein coated, % Binding against log M of antibody
T2 construct: bought soluble protein (Sino Biological); also called hVISTA; human VISTA polypeptide

[3] = biological target: T1, recombinant mouse VISTA (His-tagged); experiment: as above
[4] = biological target: human HER3 (human, UniProt P21860 20-643); experiment: as above
[5] = biological target: T3, recombinant cynomolgus macaque VISTA (His-tagged) (cynomolgus macaque, UniProt A0A7N9IB00 33-194); experiment: as above
T3 construct: also called cyno VISTA; cynomolgus monkey VISTA

[6] = biological target: T4, human PD-L1 (human, UniProt Q9NZQ7 19-239); experiment: as above
T4 construct: captured through a His tag in the BLI experiments; also called hPD-L1; B7H1/PDL-1
T4 sequence (Q9NZQ7 19-239 limits assumed): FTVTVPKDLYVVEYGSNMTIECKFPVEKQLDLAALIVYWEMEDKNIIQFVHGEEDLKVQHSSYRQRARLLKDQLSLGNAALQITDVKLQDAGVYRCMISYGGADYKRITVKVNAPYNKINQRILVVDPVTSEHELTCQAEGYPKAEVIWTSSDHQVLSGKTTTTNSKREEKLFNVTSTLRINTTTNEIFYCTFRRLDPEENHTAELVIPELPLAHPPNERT

[7] = biological target: T2, recombinant human VISTA (His-tagged); experiment: antigen-binding ELISA; HMBD-002 in F6, day 20 at 40°C
[8] = biological target: T3, recombinant cynomolgus macaque VISTA …; experiment: SPR (Biacore), NHP VISTA-HIS captured, antibody as analyte, 1:1 model; SPR (Biacore), NHP (cynomolgus) VISTA
[9] = biological target: T2, recombinant human VISTA (His-tagged); experiment: antigen-binding ELISA; HMBD-002 in F7, day 20 at 40°C
[10] = biological target: T2, recombinant human VISTA (His-tagged); experiment: antigen-binding ELISA; HMBD-002 in F6, day 10 at 40°C
[11] = biological target: T5, human VISTA expressed on cells (human, UniProt Q9H7M9 33-311); experiment: flow cytometry, endogenous VISTA on CD11b+ myeloid cells of PBMCs
T5 construct: also called HEK293 VISTA O/E; HEK293T or HEK293-6E cells overexpressing human VISTA

[12] = biological target: T6, mouse VISTA expressed on cells (mouse, UniProt Q9D659 33-308); experiment: as above
T6 construct: whole, on cells; also called murine VISTA on transfected cells; VISTA on mouse CD11b+ myeloid cells
T6 sequence (looked up): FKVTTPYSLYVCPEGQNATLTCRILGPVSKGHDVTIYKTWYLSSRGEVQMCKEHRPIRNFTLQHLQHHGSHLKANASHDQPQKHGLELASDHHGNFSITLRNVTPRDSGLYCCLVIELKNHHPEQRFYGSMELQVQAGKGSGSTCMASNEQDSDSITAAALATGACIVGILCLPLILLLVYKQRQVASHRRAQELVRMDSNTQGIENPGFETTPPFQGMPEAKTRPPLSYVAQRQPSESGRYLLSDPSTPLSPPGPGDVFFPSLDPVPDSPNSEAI

[13] = biological target: T2, recombinant human VISTA (His-tagged); experiment: antigen-binding ELISA; HMBD-002 in F2, day 30 at 40°C
[14] = biological target: T2, recombinant human VISTA (His-tagged); experiment: antigen-binding ELISA; HMBD-002 in F6, day 30 at 40°C
[15] = biological target: T2, recombinant human VISTA (His-tagged); experiment: antigen-binding ELISA; reference standard run with the day 0 samples; reference standard, run with the Day 0 samples
[16] = biological target: T2, recombinant human VISTA (His-tagged); experiment: ELISA on coated human VISTA, antibody diluted in buffer of pH 7.5
[17] = biological target: T1, recombinant mouse VISTA (His-tagged); experiment: ELISA, VISTA-HIS protein coated; ELISA, mouse VISTA-HIS
[18] = biological target: T2, recombinant human VISTA (His-tagged); experiment: antigen-binding ELISA; reference standard run with the day 10 samples
[19] = biological target: human CTLA4 (human, UniProt P16410 36-162); experiment: ELISA, plate coated with human CTLA-4, antibody titrated
Chain of human CTLA4 (P16410 36-162 limits assumed): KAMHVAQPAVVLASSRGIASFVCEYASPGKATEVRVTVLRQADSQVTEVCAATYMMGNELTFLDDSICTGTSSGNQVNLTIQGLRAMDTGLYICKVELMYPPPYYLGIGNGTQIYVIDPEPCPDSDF

[20] = biological target: T3, recombinant cynomolgus macaque VISTA …; experiment: ELISA, NHP VISTA-HIS protein coated; ELISA, NHP (cynomolgus) VISTA-HIS
[21] = biological target: T2, recombinant human VISTA (His-tagged); experiment: antigen-binding ELISA; HMBD-002 in F3, day 30 at 40°C
[22] = biological target: T2, recombinant human VISTA (His-tagged); experiment: antigen-binding ELISA; HMBD-002 10 mg/mL in F9, day 0

B1: anti-VISTA clone 4M2-C12 IgG1 (antibody)
heavy: not shown
light: DIVITQTPAILSTSPGEKVTMTCRASSSVGYIHWYQQKPGSSPKPWIYATSNLASGVPARFSGSGSGTSNSLTITRVEAEDAATYYCQQWSSYPPITFGGGTKLEVKRTVAAPSVFIFPPSDEQLKSGTASVVCLLNNFYPREAKVQWKVDNALQSGNSQESVTEQDSKDSTYSLSSTLTLSKADYEKHKVYACEVTHQGLSSPVTKSFNRGEC
notes: mouse variable regions on human IgG1/kappa constant regions; also called V4; V4pr
Q: Which results are given for B1?
A: koff [1]: 0.00445 s⁻¹; kon [1]: 39500 M⁻¹ s⁻¹; EC50 [2]: 256 pM; EC50 [3]: 5930 pM; binding result [4]: no binding (tested: about 10^-6.2 M (log M axis)); EC50 [5]: 282 pM; binding result [6]: no binding (tested: about 10^-6.7 M (log M axis))

B2: V4-C26 hIgG4 (antibody)
heavy: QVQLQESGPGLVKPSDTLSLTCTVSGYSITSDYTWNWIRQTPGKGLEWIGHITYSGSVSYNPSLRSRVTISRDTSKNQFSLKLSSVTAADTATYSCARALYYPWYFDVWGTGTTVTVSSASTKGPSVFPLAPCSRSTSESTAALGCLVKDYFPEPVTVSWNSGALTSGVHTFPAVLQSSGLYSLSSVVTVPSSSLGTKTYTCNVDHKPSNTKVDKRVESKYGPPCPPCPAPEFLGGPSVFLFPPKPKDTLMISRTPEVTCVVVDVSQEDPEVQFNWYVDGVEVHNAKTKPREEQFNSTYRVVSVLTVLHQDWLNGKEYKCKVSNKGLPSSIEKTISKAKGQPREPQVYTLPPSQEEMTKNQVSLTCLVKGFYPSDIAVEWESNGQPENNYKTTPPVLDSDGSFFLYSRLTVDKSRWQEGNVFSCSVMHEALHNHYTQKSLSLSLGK
light: EIVLTQSPATLSLSPGERATLSCRASSSVGYIHWYQQKPGQAPRPIIYTTSNRATGIPARFSGSGSGTDNTLTISSLEPEDSAVYYCQQWSSYPPITFGGGTKLEVKRTVAAPSVFIFPPSDEQLKSGTASVVCLLNNFYPREAKVQWKVDNALQSGNSQESVTEQDSKDSTYSLSSTLTLSKADYEKHKVYACEVTHQGLSSPVTKSFNRGEC
notes: human IgG4 (S228P)/kappa format; also called HMBD-002; HMBD-002-V4C26
Q: B2 was tested. Which EC50 [7] did it give?
A: 18.6 pM

Q: What about the Kd [8] of the same binder?
A: 367 pM

Q: What about the EC50 [9] of the same binder?
A: 20.6 pM

Q: And the EC50 [10]?
A: 30.6 pM

Q: And the EC50 [11]?
A: 108000 pM

Q: What about the EC50 [12] of the same binder?
A: 111000 pM

Q: And the EC50 [13]?
A: 20.2 pM

Q: And the EC50 [14]?
A: 21.8 pM

Q: And the EC50 [15]?
A: 30.7 pM

Q: And the EC50 [16]?
A: 28.7 pM

Q: And the EC50 [17]?
A: 3.55 pM

Q: What about the EC50 [18] of the same binder?
A: 25.3 pM

Q: Does B2 bind [19]?
A: no binding (tested: about 3e-8 M)

Q: And the EC50 [20]?
A: 12.1 pM

Q: And the EC50 [21]?
A: 22.7 pM

Q: And the EC50 [22]?
A: 31.5 pM

Source: patent US20250313631A1 (HUMMINGBIRD BIOSCIENCE PTE, published 2025)
